The source of these data is US20070022497A1, “Trans-2-enoyl-coa reductase gene of euglena gracilis” (BASF Plant Science GmbH, priority 2004, published 2007).

Data set [1] deals with T1, trans-2-enoyl-CoA reductase (TER) (Euglena gracilis, UniProt Q5EU90).
T1 construct: One kilogram of Euglena gracilis strain Z cells grown under aerobic conditions for one week was used as starting material; endogenous in cells; host or cells: Euglena gracilis strain Z, aerobically grown; enzyme purified by chromatography (crude extract to Superdex 200)
T1 sequence (Q5EU90 137-539 limits assumed): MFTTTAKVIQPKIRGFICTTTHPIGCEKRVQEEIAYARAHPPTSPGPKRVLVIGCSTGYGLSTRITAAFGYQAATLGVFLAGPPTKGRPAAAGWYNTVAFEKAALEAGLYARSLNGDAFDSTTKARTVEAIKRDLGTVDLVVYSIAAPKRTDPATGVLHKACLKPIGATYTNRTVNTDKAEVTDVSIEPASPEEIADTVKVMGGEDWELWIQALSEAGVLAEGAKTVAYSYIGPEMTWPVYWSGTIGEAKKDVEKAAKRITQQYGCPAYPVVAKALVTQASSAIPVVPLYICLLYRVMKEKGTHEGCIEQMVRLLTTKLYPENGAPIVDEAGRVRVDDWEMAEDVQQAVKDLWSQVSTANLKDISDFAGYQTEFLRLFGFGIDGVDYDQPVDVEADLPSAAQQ
The data set can be described thus: trans-2-enoyl-CoA reductase enzyme activity assay (decrease of absorbance at 340 nm with Crotonyl-CoA and NADH). The following applies: His-Tag protein from ter2-pET28 in E. coli BL21 (DE3), purified via Ni-NTA agarose. It is filed as biochemical. The procedure: Enzyme activity was measured as described by Inui, H. et al. (1984) Eur. J. Biochem. 142: 121-126 with the following modifications. The assay mixture contained 100 mM potassiumphosphate buffer pH 6,2; 0,75 mM Crotonyl-CoA (Sigma); 0,4 mM NADH and 2 μM FAD and enzyme. The assay mixture without substrate was preincubated for 10 min at 30° C. The reaction was also performed at 30° C. and started with the addition of substrate. The activity was determined by the decrease of absorbance at 340 nm. The final assay volume was 1 ml (Ultrospec 2000 Spectrophotometer, Amersham Biosciences) or 200 μl (GENios microplate reader, Tecan Instruments, Maennedorf, Switzerland).

Data set [2] deals with Arabidopsis thaliana. The data set can be described thus: Total seed lipid content of transgenic Arabidopsis plants over-expressing the TER gene (gas chromatography of fatty acids). It is filed as in vivo. The following applies: for Total seed lipids, % fatty acids: mean of two extractions, empty vector controls 28.3 ± 0.4. The procedure: Using floral dip essentially as described by Clough and Bent, 1998, plants are transformed with Agrobacterium tumefaciens C58C1 harboring the plasmid pSUN300-USP-TER-OCS respectively. Entire plants (inflorescence and rosette) are submerged for 20-30 sec in the infiltration media consisting of 5% sucrose, 0.02% Silwet L-77 (Osi Specialties, Danbury, Conn.) and re-suspended transformed A. tumefasciens cells. Plants are then transferred to a growth chamber with a photoperiod of 16 h of light at 21° C. and 8 h of dark at 18° C. (70% humidity) or a similarly air-conditioned greenhouse. The T1 seeds are collected from mature plants. Subsequently transformed plants were identified on selection media by growing T1 seeds on MS-agar plates supplemented with kanamycin (50 μg/ml).
Plant lipids were extracted from plant material as described by Cahoon et al. (1999, Proc. Natl. Acad. Sci. USA 96, 22:12935-12940) and Browse et al. (1986, Anal, Bio-chemistry 442:141-145). Qualitative and quantitative lipid or fatty acid analysis is described in Christie, William W., Advances in Lipid Methodology. Ayr/Scotland :Oily Press.—(Oily Press Lipid Library; Christie, William W., Gas Chromatography and Lipids. A Practical Guide—Ayr, Scotland :Oily Press, 1989 Repr. 1992.—IX,307).
The total lipid content of dry T2 generation seeds from Arabidopsis thaliana plants over-expressing SEQ ID NO: 1, SEQ ID NO: 4 or SEQ ID NO: 6 will be increased compared to the empty vector Arabidopsis thaliana control plants not expressing SEQ ID NO: 1, SEQ ID NO: 4 or SEQ ID NO: 6. As an example the T2 seed lipid content determined by conventional gas chromatography as mg fatty acids per mg dry seeds of the plants overexpressing SEQ ID NO: 4 is given in table 4. Each value is the mean of two separate extractions of the seed of the given line. The control value is the mean of the seeds of 4 empty vector control plants grown simultaneously, each extracted and measured also in duplicate.

B1: ter2-protein: His-tagged truncated TER protein (from aa 136, 45 kDa) expressed in E. coli (protein, listed as Euglena gracilis)
chain: MFTTTAKVIQPKIRGFICTTTHPIGCEKRVQEEIAYARAHPPTSPGPKRVLVIGCSTGYGLSTRITAAFGYQAATLGVFLAGPPTKGRPAAAGWYNTVAFEKAALEAGLYARSLNGDAFDSTTKARTVEAIKRDLGTVDLVVYSIAAPKRTDPATGVLHKACLKPIGATYTNRTVNTDKAEVTDVSIEPASPEEIADTVKVMGGEDWELWIQALSEAGVLAEGAKTVAYSYIGPEMTWPVYWSGTIGEAKKDVEKAAKRITQQYGCPAYPVVAKALVTQASSAIPVVPLYICLLYRVMKEKGTHEGCIEQMVRLLTTKLYPENGAPIVDEAGRVRVDDWEMAEDVQQAVKDLWSQVSTANLKDISDFAGYQTEFLRLFGFGIDGVDYDQPVDVEADLPSAAQQ
modifications: His tag
notes: His-tagged truncated TER protein (from aa 136, 45 kDa) expressed in E. coli
Consider B1, for which the “Specific activity of purified ter2-protein” value in data set [1] worked out at 1510 nmol/mg/min.

B2: SEQ ID NO: 4: shortened Ter gene ORF; protein SEQ ID NO: 5 with 28 amino acid N-terminal stretch predicted to give mitochondrial targeting (nucleic acid, listed as Euglena gracilis)
DNA: ATGGGCCGCCGCGGGGCCGCAGTGGGCGGCGCCGCTCGTGGCCGCGGCCTCCTCCGCACTGGCGCTGTGGTGGTGAACATCGCCACCGCGGTCACCCACCTGGCCCCCCCGATGGCGATGTTCACCACCACAGCGAAGGTCATCCAGCCCAAGATTCGTGGCTTCATCTGCACGACCACCCACCCGATCGGCTGTGAGAAGCGGGTCCAGGAGGAGATCGCGTACGCCCGTGCCCACCCGCCCACCAGCCCTGGCCCGAAGAGGGTGCTGGTCATCGGCTGCAGTACCGGCTACGGGCTCTCCACCCGCATCACCGCTGCCTTCGGCTACCAGGCCGCCACGCTGGGCGTGTTCCTGGCGGGCCCCCCGACGAAGGGCCGCCCCGCCGCGGCGGGCTGGTACAACACCGTGGCGTTCGAGAAGGCCGCCCTGGAGGCCGGGCTGTACGCCCGGAGCCTTAATGGCGACGCCTTCGACTCCACAACGAAGGCGCGGACGGTCGAGGCGATCAAGCGGGACCTCGGCACGGTGGACCTCGTGGTGTACAGCATCGCCGCCCCGAAGCGGACGGACCCTGCCACCGGCGTCCTCCACAAGGCCTGCCTGAAGCCCATCGGCGCCACGTACACCAACCGCACTGTGAACACCGACAAGGCGGAGGTGACCGACGTCAGCATTGAGCCGGCCTCCCCCGAAGAGATCGCGGACACGGTGAAGGTGATGGGCGGGGAGGACTGGGAGCTCTGGATCCAGGCGCTGTCGGAGGCCGGCGTGCTGGCGGAGGGGGCCAAGACGGTGGCGTACTCCTACATCGGCCCCGAGATGACGTGGCCTGTCTACTGGTCCGGCACCATCGGGGAGGCCAAGAAGGACGTGGAGAAGGCTGCCAAGCGCATCACGCAGCAGTACGGCTGCCCGGCGTACCCGGTGGTGGCCAAGGCCTTGGTCACCCAGGCCAGCTCCGCCATCCCGGTGGTGCCGCTCTACATCTGCCTGCTGTACCGCGTTATGAAGGAGAAGGGCACCCACGAGGGCTGCATCGAGCAGATGGTGCGGCTGCTCACCACGAAGCTGTACCCCGAGAACGGGGCCCCCATCGTCGATGAGGCCGGACGTGTGCGGGTGGATGACTGGGAGATGGCGGAGGATGTGCAGCAGGCTGTTAAGGACCTCTGGAGCCAGGTGAGCACTGCCAACCTCAAGGACATCTCCGACTTCGCTGGGTATCAAACTGAGTTCCTGCGGCTGTTCGGGTTCGGCATTGACGGCGTGGACTACGACCAGCCCGTGGACGTGGAGGCGGACCTCCCCAGTGCTGCCCAGCAGTAG
modifications: CDS (1)..(1329)
As for B2, in data set [2] (independent T2 lines, seed specific promoter, relative to empty pSun300-USP vector controls (FIG. 9)), the “increase in seed storage lipids compared to the controls” value is “at least 10%”. The “Total seed lipids, % fatty acids” value in data set [2] (transgenic line 7, dry T2 seeds) was found to be 35.5 ± 3.2%; in data set [2] (transgenic line 10, dry T2 seeds), 32.4 ± 1.1%; in data set [2] (transgenic line 22, dry T2 seeds), 31.4 ± 0.9%.
